Experimental data: patent US20250145690A1 (US Dept. of Health and Human Services, published 2025)

Experiments:
Test in all cases: bead flow cytometry, AUC minus CD4
[1] = target: T1, HCoV-HKU1 spike protein (Sino Biological 40606-V08B) (HCoV-HKU1, UniProt Q0ZME7 13-1295)
T1 sequence: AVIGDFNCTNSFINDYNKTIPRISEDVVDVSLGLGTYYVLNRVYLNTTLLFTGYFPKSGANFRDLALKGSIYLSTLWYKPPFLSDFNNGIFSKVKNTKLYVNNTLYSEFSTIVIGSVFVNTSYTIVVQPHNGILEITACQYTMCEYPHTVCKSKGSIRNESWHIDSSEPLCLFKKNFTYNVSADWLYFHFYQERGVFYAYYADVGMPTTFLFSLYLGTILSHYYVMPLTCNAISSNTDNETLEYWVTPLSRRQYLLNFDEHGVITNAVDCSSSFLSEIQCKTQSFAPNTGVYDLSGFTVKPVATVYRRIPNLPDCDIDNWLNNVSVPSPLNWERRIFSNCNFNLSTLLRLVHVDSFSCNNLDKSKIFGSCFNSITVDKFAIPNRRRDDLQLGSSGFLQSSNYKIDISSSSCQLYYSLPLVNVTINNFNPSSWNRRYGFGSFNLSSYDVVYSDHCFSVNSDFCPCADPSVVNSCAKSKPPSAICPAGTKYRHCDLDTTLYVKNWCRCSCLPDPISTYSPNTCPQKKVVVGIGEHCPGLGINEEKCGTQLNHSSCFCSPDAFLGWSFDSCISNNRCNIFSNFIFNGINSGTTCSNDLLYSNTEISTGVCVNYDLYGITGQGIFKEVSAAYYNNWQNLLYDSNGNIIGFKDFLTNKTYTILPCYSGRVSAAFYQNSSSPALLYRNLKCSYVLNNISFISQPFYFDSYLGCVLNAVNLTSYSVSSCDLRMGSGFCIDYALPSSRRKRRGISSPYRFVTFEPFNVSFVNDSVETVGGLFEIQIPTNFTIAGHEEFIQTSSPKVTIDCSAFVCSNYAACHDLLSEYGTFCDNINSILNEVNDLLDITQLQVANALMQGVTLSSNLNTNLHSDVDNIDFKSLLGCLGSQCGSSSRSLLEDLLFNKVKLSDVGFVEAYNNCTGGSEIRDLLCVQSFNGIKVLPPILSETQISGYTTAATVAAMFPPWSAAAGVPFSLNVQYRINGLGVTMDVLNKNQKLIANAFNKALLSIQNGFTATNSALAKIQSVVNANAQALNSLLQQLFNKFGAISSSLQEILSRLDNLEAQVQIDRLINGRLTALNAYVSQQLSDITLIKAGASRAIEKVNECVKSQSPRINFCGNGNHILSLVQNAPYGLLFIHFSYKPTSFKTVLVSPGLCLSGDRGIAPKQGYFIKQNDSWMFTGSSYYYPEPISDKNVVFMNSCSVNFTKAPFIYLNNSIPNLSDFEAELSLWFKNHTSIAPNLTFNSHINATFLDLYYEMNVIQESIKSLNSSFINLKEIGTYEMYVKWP

[2] = target: T2, HCoV-NL63 spike protein (Sino Biological 40604-V08B) (HCoV-NL63, UniProt Q6Q1S2 19-1296)
T2 sequence: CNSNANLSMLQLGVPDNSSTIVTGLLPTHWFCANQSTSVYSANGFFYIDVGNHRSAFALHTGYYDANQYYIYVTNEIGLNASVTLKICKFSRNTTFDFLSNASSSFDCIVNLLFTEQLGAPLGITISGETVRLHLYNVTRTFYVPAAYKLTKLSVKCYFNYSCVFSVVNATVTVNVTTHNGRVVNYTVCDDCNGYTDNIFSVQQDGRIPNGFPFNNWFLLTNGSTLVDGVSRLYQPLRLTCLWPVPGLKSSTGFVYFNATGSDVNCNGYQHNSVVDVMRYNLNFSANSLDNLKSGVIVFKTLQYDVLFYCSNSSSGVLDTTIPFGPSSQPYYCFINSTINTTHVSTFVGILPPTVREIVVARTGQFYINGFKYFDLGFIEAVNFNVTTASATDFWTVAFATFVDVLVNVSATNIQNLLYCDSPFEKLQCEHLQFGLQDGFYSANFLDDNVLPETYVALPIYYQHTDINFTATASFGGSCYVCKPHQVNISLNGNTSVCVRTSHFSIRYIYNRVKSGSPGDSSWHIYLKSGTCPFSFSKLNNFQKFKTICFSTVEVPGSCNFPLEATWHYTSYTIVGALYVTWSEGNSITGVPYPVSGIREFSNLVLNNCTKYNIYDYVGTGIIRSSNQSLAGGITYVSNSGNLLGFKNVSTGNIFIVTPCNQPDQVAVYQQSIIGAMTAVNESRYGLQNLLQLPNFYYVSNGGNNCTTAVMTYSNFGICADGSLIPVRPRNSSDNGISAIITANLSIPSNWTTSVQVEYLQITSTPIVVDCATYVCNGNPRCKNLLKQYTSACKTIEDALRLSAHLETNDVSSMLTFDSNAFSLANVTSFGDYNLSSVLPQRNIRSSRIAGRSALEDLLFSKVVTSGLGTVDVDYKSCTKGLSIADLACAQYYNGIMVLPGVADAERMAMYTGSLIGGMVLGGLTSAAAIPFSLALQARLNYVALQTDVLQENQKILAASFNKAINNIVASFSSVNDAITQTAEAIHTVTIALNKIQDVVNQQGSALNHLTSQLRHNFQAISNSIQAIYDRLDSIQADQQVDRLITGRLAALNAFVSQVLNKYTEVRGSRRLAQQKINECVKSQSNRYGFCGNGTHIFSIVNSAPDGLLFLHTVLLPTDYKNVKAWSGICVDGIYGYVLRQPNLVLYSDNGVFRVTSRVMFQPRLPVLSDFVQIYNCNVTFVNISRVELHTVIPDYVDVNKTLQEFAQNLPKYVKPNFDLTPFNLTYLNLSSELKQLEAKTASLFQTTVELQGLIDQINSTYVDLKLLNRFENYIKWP

[3] = target: T3, HCoV-229E spike protein (Sino Biological 40605-V08B) (HCoV-229E, UniProt P15423 16-1115)
T3 sequence: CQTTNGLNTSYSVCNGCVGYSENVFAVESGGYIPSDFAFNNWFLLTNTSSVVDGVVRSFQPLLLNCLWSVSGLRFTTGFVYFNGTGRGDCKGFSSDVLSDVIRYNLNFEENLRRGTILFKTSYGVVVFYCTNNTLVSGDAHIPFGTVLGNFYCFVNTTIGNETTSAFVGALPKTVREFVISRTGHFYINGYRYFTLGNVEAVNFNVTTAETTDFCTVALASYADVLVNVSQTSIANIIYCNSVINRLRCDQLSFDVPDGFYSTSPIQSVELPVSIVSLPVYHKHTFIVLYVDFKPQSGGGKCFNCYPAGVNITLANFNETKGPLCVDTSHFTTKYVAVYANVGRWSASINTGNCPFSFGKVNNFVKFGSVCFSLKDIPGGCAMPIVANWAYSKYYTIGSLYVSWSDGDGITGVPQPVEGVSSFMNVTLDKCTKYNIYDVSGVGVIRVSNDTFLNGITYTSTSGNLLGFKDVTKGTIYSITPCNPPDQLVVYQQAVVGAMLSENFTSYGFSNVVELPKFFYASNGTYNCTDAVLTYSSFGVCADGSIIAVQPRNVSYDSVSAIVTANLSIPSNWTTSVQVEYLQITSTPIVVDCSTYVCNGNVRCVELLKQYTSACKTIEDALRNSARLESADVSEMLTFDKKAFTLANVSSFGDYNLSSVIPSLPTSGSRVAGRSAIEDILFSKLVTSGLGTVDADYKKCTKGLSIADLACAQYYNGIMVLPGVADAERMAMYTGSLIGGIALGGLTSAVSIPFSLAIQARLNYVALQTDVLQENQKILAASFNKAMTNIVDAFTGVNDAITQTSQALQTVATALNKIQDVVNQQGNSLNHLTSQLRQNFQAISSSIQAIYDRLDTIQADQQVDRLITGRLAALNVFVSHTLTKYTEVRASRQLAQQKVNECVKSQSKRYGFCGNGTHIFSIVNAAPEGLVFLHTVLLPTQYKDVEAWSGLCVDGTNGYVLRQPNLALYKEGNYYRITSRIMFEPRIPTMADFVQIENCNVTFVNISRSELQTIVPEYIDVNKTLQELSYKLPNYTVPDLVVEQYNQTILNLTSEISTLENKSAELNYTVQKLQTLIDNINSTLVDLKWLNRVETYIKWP

[4] = target: SARS-CoV-2 spike N-terminal domain (NTD), recombinant (SARS-CoV-2, UniProt P0DTC2 14-305)
[5] = target: T4, SARS-CoV-2 spike S2 subunit, recombinant (SARS-CoV-2, UniProt P0DTC2 686-1213)
T4 construct: domain: S2 subunit

[6] = target: SARS-CoV-2 spike receptor binding domain (RBD), recombinant (SARS-CoV-2, UniProt P0DTC2 319-541)

Measured: binding result

B1: COV44-26 (antibody, V domains shown)
VH: QVQLVQSGAEVKKPGASVKVSCKASGYTFSNFYMNWVRQAPGQGLEWVGLISPSAGYTAYAQMFQGRVTMTRDTSTSTVYMELSSLRSEDTAVYYCARVAVAGPNDYWGQGTLVTVSS
VL: EIVLTQSPGTLSLSPGERATLSCRASQSISSSYLAWYQQKPGQAPRLVIFAASTRATGIPDRFSGSGSGTDFTLTITRLEPEDFALYYCQHYRSSPPLWTFGQGTKVEIR
no binding (tested: 200 µg/mL): [1] | [2] | [3] | [4]

B2: COV89-28 (antibody, V domains shown)
VH: EVQLVESGGGLVQPGRSLRLSCAASGFTFDDYAMHWVRQAPGKGLEWVSSISWNSGSIVYADSVTGRCTITRDNAKNSLYLQMNSLRPEDTALYYCAKGYSSSPVVYYMDVWGKGTTVTVSS
VL: DIQMTQSPSSVSASVGDRVTITCRASQGIAGWFAWYQQKPGKAPKLLIYATSSLQRGVPSRFSGSGSATHFTLTITSLQPEDFATYYCQQANIFGPGTKVDIK
not listed: [1]
no binding (tested: 200 µg/mL): all other assays above
